B1: UBQLN1 (514–589, F547Y) (domain or fragment, UniProt Q9UMX0 514-589, looked up)
chain: TAGTTEPGHQQFIQQMLQALAGVNPQLQNPEVRYQQQLEQLSAMGFLNREANLQALIATGGDINAAIERLLGSQPS
B2: AZUL-mEGFP (E6AP isoform II 24–87 with a C-terminal mEGFP) (domain or fragment, UniProt Q05086 24-87, looked up)
chain: MKRAAAKHLIERYYHQLTEGCGNEACTNEFCASCPTFLRMDNNAAAIKALELYKINAKLCDPHP

What was measured:
UBQLN2 UBL (26–103) = UBQLN2 UBL (26–103) (UniProt Q9UHD9 26-103); assay: NMR titration
UBQLN2 = UBQLN2 (UniProt Q9UHD9 1-624); assay: recruitment to biomolecular condensates in vitro

UBQLN2 UBL (26–103), sequence (Q9UHD9 26-103): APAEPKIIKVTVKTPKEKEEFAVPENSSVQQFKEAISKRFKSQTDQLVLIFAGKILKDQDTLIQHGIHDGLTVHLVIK

| Binder | binding result (UBQLN2 UBL (26–103)) | binding result (UBQLN2) |
| --- | --- | --- |
| B1 | binds | – |
| B2 | – | binds |

— PMC10081965 (Structure (London, England : 1993), 2023)
